The values that follow come from US20230213527A1, “COMPOSITIONS AND METHODS FOR POLYPEPTIDE ANALYSIS” (Quantum-Si Incorporated, priority 2021, published 2023).

For assay [1], the system named is N-terminal lysine and histidine. The assay can be described thus: Polarization binding assay of PS691, peptides with N-terminal arginine, lysine, histidine. Conditions: compared with N-terminal arginine. As for the experimental part:
In a separate screen, a diverse set of UBR-box domains from the UBR family of ubiquitin ligases that natively bind N-terminal arginine, lysine, and histidine were investigated. […] PS691 recognized arginine in a peptide with N-terminal RLA with a median PD of 0.23 s (FIG. 2C).
(§1) Binding affinity was measured by polarization using a labeled peptide. The polarization response and total intensity measurements were carried out at 20° C. on a microplate fluorometer with 480 nm excitation and 530 nm emission. The interaction of recognizer with labeled peptide containing a target N-terminal residue (XAKLDEESILKQK-FITC (SEQ ID NO: 833)) was performed in PBS buffer at pH 7.4 and readings were collected after 30 min. Multiple analyses were performed at increasing recognizer concentration at a fixed concentration of a target peptide to obtain a titration curve. An equilibrium polarization response at each concentration was plotted and fit to calculate the KD.

Assay [2] concerns the target N-terminal leucine, isoleucine, and valine. Description: Binding affinity of PS961 (bulk characterization, polarization), N-terminal leucine, isoleucine, valine.
From the text: To expand the set of recognizable NAAs, N-end rule pathway proteins were investigated as a source of additional recognizers. In a comprehensive screen of diverse ClpS family proteins, a group of ClpS proteins from the bacterial phylum Planctomycetes with native binding to N-terminal leucine, isoleucine, and valine was discovered. […] The median PD of binding to peptides with N-terminal LAA, IAA, and VAA was 1.21, 0.28, and 0.21 s, respectively, in agreement with bulk characterization (FIG. 7C).
as §1

B1: PS691: arginine recognizer generated from the UBR-box domain of K. lactis UBR1 protein (protein)
chain: MHSKFSHAGRICGAKFKVGEPIYRCKECSFDDTCVLCVNCFNPKDHTGHHVYTTICTEFNNGICDCGDKEAWNHTLFCKAEEGGSAGSAAGSGEFMHSKFSHAGRICGAKFKVGEPIYRCKECSFDDTCVLCVNCFNPKDHTGHHVYTTICTEFNNGICDCGDKEAWNHTLFCKAEEGGGSHHHHHHHHHHGGGSGGGSGGGSGLNDFFEAQKIEWHEGGGSGGGSGGGSGLNDFFEAQKIEWHE
With B1, in assay [1], the “Binding to N-terminal lysine and histidine” value is reported as “Lower affinity”.

B2: PS961: Planctomycetes ClpS variant recognizer for N-terminal leucine, isoleucine, and valine (protein)
chain: MPTAASATESAIEDTPAPARPEVDGRTKPKRQPRYHVVLWDDDDHTYQYVVVMLRSLFGHPPSRGYRMAKEMDTQGRVIVLTTTREHAELKRDQIHAFGRDRLLARSKGSMKASIEAEE
Consider B2, for which the Affinity entry in assay [2] is “sub-micromolar”.
